Results from US20200199241A1 (Chugai, published 2020).
Substitutions are numbered along the chain they refer to. In names and notes the source's numbering stands.

B1: IgG1-F510 (antibody)
heavy: QVQLQESGPGLVKPSETLSLTCAVSGHSISHDHAWSWVRQPPGEGLEWIGFISYSGITNYNPSLQGRVTISRDNSKNTLYLQMNSLRAEDTAVYYCARSLARTTAMDYWGEGTLVTVSSASTKGPSVFPLAPSSKSTSGGTAALGCLVKDYFPEPVTVSWNSGALTSGVHTFPAVLQSSGLYSLSSVVTVPSSSLGTQTYICNVNHKPSNTKVDKKVEPKSCDKTHTCPPCPAPELLGGPSVFLFPPKPKDTLMISRTVEVTCVVVDVSHEDPEVKFNWYVDGVEVHNAKTKPREEQYNSTYRVVSVLQVLHQDWLNGKEYKCKVSNKALPAPIEKTISKAKGQPREPQVYTLPPSRDELTKNQVSLTCLVKGFYPSDIAVEWESNGQPEANYKTTPPVLDSDGSFFLYSKLTVDKSRWQQGNVFSCSVLHEALHYHYTQKSLSLSP
light: not shown
notes: EU numbering; copies: 2 + 2
B2: IgG1-F517 (antibody)
heavy: B1 heavy with N288E, Q309T, A391N, L430M
light: not shown
notes: EU numbering; copies: 2 + 2
B3: IgG1-F570 (antibody)
heavy: B1 heavy with M254Y, S256T, V259P, Q309A, Q313H, A391N, L430M
light: not shown
notes: EU numbering; copies: 2 + 2
B4: IgG1-F523 (antibody)
heavy: B1 heavy with V307A, A391N, L430Y
light: not shown
notes: EU numbering; copies: 2 + 2
B5: IgG1-F578 (antibody)
heavy: B1 heavy with M254Y, V259P, N288E, Q313A, A391N, L430M, Y436N
light: not shown
notes: EU numbering; copies: 2 + 2
B6: IgG1-F566 (antibody)
heavy: B1 heavy with M254Y, S256T, V259P, Q313A, A391N, L430M
light: not shown
notes: EU numbering; copies: 2 + 2
B7: IgG1-F561 (antibody)
heavy: B1 heavy with M254Y, S256T, V259P, Q309A, A391N, L430M
light: not shown
notes: EU numbering; copies: 2 + 2
B8: IgG1-F518 (antibody)
heavy: B1 heavy with V259T, N288E, Q309T, A391N, L430M
light: not shown
notes: EU numbering; copies: 2 + 2
B9: IgG1-F560 (antibody)
heavy: B1 heavy with M254Y, S256T, V259P, Q309T, V310P, A391N, L430M
light: not shown
notes: EU numbering; copies: 2 + 2
B10: IgG1-F526 (antibody)
heavy: B1 heavy with V259T, A391N, L430Y
light: not shown
notes: EU numbering; copies: 2 + 2
B11: IgG1-F544 (antibody)
heavy: B1 heavy with T252M, A391N
light: not shown
notes: EU numbering; copies: 2 + 2
B12: IgG1-F577 (antibody)
heavy: B1 heavy with M254Y, V259P, N288E, Q309A, Q313A, A391N, L430M, Y436N
light: not shown
notes: EU numbering; copies: 2 + 2
B13: IgG1-F585 (antibody)
heavy: B1 heavy with S241K, M254Y, V259P, N288E, Q309T, V310P, A391N, L430M, Y436N
light: not shown
notes: EU numbering; copies: 2 + 2
B14: IgG1-F562 (antibody)
heavy: B1 heavy with M254Y, S256T, V259P, A391N, L430M
light: not shown
notes: EU numbering; copies: 2 + 2
B15: IgG1-F550 (antibody)
heavy: B1 heavy with T252V, A391N
light: not shown
notes: EU numbering; copies: 2 + 2
B16: IgG1-F584 (antibody)
heavy: B1 heavy with S241K, M254Y, T258E, V259P, Q309T, V310P, A391N, L430M, Y436N
light: not shown
notes: EU numbering; copies: 2 + 2
B17: IgG1-F534 (antibody)
heavy: B1 heavy with V259A, N288E, A391N, L430Y
light: not shown
notes: EU numbering; copies: 2 + 2
B18: IgG1-F576 (antibody)
heavy: B1 heavy with M254Y, T258E, V259P, Q313H, A391N, L430M, Y436N
light: not shown
notes: EU numbering; copies: 2 + 2
B19: IgG1-F565 (antibody)
heavy: B1 heavy with M254Y, S256T, V259P, Q309A, Q313A, A391N, L430M
light: not shown
notes: EU numbering; copies: 2 + 2
B20: IgG1-F583 (antibody)
heavy: B1 heavy with S241K, M254Y, V259P, Q309T, V310P, E384A, A391N, L430M, Y436N
light: not shown
notes: EU numbering; copies: 2 + 2
B21: IgG1-F567 (antibody)
heavy: B1 heavy with M254Y, S256T, V259P, Q309T, A391N, L430I
light: not shown
notes: EU numbering; copies: 2 + 2
B22: IgG1-F519 (antibody)
heavy: B1 heavy with N288E, A391N, L430M
light: not shown
notes: EU numbering; copies: 2 + 2
B23: IgG1-F533 (antibody)
heavy: B1 heavy with V259A, N288E, A391N, L430F
light: not shown
notes: EU numbering; copies: 2 + 2
B24: IgG1-F564 (antibody)
heavy: B1 heavy with M254Y, S256T, V259P, Q309T, Q313H, A391N, L430M
light: not shown
notes: EU numbering; copies: 2 + 2
B25: IgG1-F569 (antibody)
heavy: B1 heavy with M254Y, T258Q, V259P, Q309A, Q313H, A391N, L430M
light: not shown
notes: EU numbering; copies: 2 + 2
B26: IgG1-F553 (antibody)
heavy: B1 heavy with M254Y, V259P, Q309T, Q313A, A391N, L430M
light: not shown
notes: EU numbering; copies: 2 + 2
B27: IgG1-F571 (antibody)
heavy: B1 heavy with M254Y, V259P, N288E, Q309A, Q313H, A391N, L430M
light: not shown
notes: EU numbering; copies: 2 + 2
B28: IgG1-F538 (antibody)
heavy: B1 heavy with T252F, A391N
light: not shown
notes: EU numbering; copies: 2 + 2
B29: IgG1-F551 (antibody)
heavy: B1 heavy with T252W, A391N
light: not shown
notes: EU numbering; copies: 2 + 2
B30: IgG1-F581 (antibody)
heavy: B1 heavy with M254Y, T258E, V259P, N288E, Q309T, A391N, L430M
light: not shown
notes: EU numbering; copies: 2 + 2
B31: IgG1-F559 (antibody)
heavy: B1 heavy with M254Y, S256T, V259P, N288E, Q309T, A391N, L430M
light: not shown
notes: EU numbering; copies: 2 + 2
B32: IgG1-F549 (antibody)
heavy: B1 heavy with T252S, A391N
light: not shown
notes: EU numbering; copies: 2 + 2
B33: IgG1-F582 (antibody)
heavy: B1 heavy with S241K, M254Y, V259P, Q309T, V310P, A391N, L430M, Y436N
light: not shown
notes: EU numbering; copies: 2 + 2
B34: IgG1-F521 (antibody)
heavy: B1 heavy with N288E, A391N, L430Y
light: not shown
notes: EU numbering; copies: 2 + 2
B35: IgG1-F563 (antibody)
heavy: B1 heavy with M254Y, S256T, V259P, Q309T, Q313A, A391N, L430M
light: not shown
notes: EU numbering; copies: 2 + 2
B36: IgG1-F556 (antibody)
heavy: B1 heavy with M254Y, V259P, Q313A, A391N, L430M, Y436N
light: not shown
notes: EU numbering; copies: 2 + 2
B37: IgG1-F552 (antibody)
heavy: B1 heavy with T252Y, A391N
light: not shown
notes: EU numbering; 'N428L' as printed, probably M428L; copies: 2 + 2
B38: IgG1-F568 (antibody)
heavy: B1 heavy with M254Y, T258E, V259P, Q309A, Q313H, A391N, L430M
light: not shown
notes: EU numbering; copies: 2 + 2
B39: IgG1-F541 (antibody)
heavy: B1 heavy with T252I, A391N
light: not shown
notes: EU numbering; copies: 2 + 2
B40: IgG1-F572 (antibody)
heavy: B1 heavy with M254Y, V259P, Q309A, Q313H, A391N, L430I
light: not shown
notes: EU numbering; copies: 2 + 2
B41: IgG1-F580 (antibody)
heavy: B1 heavy with M254Y, V259P, N288E, Q313H, A391N, L430M, Y436N
light: not shown
notes: EU numbering; copies: 2 + 2
B42: IgG1-F535 (antibody)
heavy: B1 heavy with T252A, A391N
light: not shown
notes: EU numbering; copies: 2 + 2

The binders below were run against T1, human FcRn (soluble human FcRn complexed with β2-microglobulin) (human, UniProt P61769 21-119, limits assumed) (assay: SPR, pH 7.0;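 note: antibodies captured on a Protein L sensor chip with human FcRn injected as analyte, KD calculated from fitted association and dissociation rate constants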).
T1 construct: also called hFcRn

Row | Kd [nM] | Binder
1 | 53 | B1
2 | 310 | B2
3 | 130 | B3
4 | 26 | B4
5 | 570 | B5
6 | 61 | B6
7 | 140 | B7
8 | 420 | B8
9 | 28 | B9
10 | 19 | B10
11 | 31 | B11
12 | 1300 | B12
13 | 290 | B13
14 | 83 | B14
15 | 59 | B15
16 | 630 | B16
17 | 12 | B17
18 | 1600 | B18
19 | 92 | B19
20 | 780 | B20
21 | 220 | B21

Row | Kd [nM] | Binder
22 | 26 | B22
23 | 12 | B23
24 | 190 | B24
25 | 200 | B25
26 | 170 | B26
27 | 81 | B27
28 | 99 | B28
29 | 120 | B29
30 | 72 | B30
31 | 80 | B31
32 | 54 | B32
33 | 750 | B33
34 | 11 | B34
35 | 130 | B35
36 | 1500 | B36
37 | 110 | B37
38 | 110 | B38
39 | 60 | B39
40 | 100 | B40
41 | 860 | B41
42 | 39 | B42
